B1: Contactin-associated protein-like 2 (Homo sapiens), Q9UHC6-1 (parent)
chain: MQAAPRAGCGAALLLWIVSSCLCRAWTAPSTSQKCDEPLVSGLPHVAFSSSSSISGSYSPGYAKINKRGGAGGWSPSDSDHYQWLQVDFGNRKQISAIATQGRYSSSDWVTQYRMLYSDTGRNWKPYHQDGNIWAFPGNINSDGVVRHELQHPIIARYVRIVPLDWNGEGRIGLRIEVYGCSYWADVINFDGHVVLPYRFRNKKMKTLKDVIALNFKTSESEGVILHGEGQQGDYITLELKKAKLVLSLNLGSNQLGPIYGHTSVMTGSLLDDHHWHSVVIERQGRSINLTLDRSMQHFRTNGEFDYLDLDYEITFGGIPFSGKPSSSSRKNFKGCMESINYNGVNITDLARRKKLEPSNVGNLSFSCVEPYTVPVFFNATSYLEVPGRLNQDLFSVSFQFRTWNPNGLLVFSHFADNLGNVEIDLTESKVGVHINITQTKMSQIDISSGSGLNDGQWHEVRFLAKENFAILTIDGDEASAVRTNSPLQVKTGEKYFFGGFLNQMNNSSHSVLQPSFQGCMQLIQVDDQLVNLYEVAQRKPGSFANVSIDMCAIIDRCVPNHCEHGGKCSQTWDSFKCTCDETGYSGATCHNSIYEPSCEAYKHLGQTSNYYWIDPDGSGPLGPLKVYCNMTEDKVWTIVSHDLQMQTPVVGYNPEKYSVTQLVYSASMDQISAITDSAEYCEQYVSYFCKMSRLLNTPDGSPYTWWVGKANEKHYYWGGSGPGIQKCACGIERNCTDPKYYCNCDADYKQWRKDAGFLSYKDHLPVSQVVVGDTDRQGSEAKLSVGPLRCQGDRNYWNAASFPNPSSYLHFSTFQGETSADISFYFKTLTPWGVFLENMGKEDFIKLELKSATEVSFSFDVGNGPVEIVVRSPTPLNDDQWHRVTAERNVKQASLQVDRLPQQIRKAPTEGHTRLELYSQLFVGGAGGQQGFLGCIRSLRMNGVTLDLEERAKVTSGFISGCSGHCTSYGTNCENGGKCLERYHGYSCDCSNTAYDGTFCNKDVGAFFEEGMWLRYNFQAPATNARDSSSRVDNAPDQQNSHPDLAQEEIRFSFSTTKAPCILLYISSFTTDFLAVLVKPTGSLQIRYNLGGTREPYNIDVDHRNMANGQPHSVNITRHEKTIFLKLDHYPSVSYHLPSSSDTLFNSPKSLFLGKVIETGKIDQEIHKYNTPGFTGCLSRVQFNQIAPLKAALRQTNASAHVHIQGELVESNCGASPLTLSPMSSATDPWHLDHLDSASADFPYNPGQGQAIRNGVNRNSAIIGGVIAVVIFTILCTLVFLIRYMFRHKGTYHTNEAKGAESAESADAAIMNNDPNFTETIDESKKEWLI
partner: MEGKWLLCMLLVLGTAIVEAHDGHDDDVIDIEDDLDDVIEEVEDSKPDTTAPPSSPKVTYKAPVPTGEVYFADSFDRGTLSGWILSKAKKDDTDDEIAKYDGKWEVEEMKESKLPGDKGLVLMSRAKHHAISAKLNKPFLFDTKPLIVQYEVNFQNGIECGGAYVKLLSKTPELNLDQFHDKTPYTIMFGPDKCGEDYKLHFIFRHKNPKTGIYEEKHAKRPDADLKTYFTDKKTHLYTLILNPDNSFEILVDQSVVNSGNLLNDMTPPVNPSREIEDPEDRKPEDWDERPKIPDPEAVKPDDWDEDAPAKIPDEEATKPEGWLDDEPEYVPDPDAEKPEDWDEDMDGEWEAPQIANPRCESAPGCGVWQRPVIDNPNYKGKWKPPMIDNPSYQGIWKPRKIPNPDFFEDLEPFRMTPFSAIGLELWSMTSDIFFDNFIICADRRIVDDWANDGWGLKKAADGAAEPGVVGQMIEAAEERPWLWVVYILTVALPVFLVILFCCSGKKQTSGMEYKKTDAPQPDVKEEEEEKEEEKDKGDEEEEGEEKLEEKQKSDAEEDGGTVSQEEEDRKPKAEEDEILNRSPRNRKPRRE

Variants of: B1
Settings: with calx_human CANX

Question: With D1129H as the variant, how does the “effect of a mutation on the interaction” value read?
Answer: increasing interaction strength

From IntAct's records for PubMed 22872700
